Legend:
[1] = target: T1, F-HIF-1α peptide (788-822 amino acids)
T1 chain: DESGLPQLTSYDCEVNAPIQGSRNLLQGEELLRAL

[2] = target: [35S]-labeled human HIF-1α protein, Q16665
[35S]-labeled human HIF-1α protein, Q16665, sequence (Q16665 401-826): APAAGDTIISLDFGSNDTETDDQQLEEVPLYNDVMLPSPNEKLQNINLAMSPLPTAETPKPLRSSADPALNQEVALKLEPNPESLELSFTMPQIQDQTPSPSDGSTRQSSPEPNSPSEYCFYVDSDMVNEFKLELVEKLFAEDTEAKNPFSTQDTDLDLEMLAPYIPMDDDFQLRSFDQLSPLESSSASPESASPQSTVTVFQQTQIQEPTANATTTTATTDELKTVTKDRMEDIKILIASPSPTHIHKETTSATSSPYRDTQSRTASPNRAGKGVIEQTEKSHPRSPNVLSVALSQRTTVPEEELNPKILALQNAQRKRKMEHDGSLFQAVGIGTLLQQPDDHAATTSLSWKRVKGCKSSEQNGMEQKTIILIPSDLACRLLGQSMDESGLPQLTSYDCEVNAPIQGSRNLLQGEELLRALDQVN

B1: recombinant human FIH-1, histidine-tagged fusion protein (protein)
chain: MAATAAEAVASGSGEPREEAGALGPAWDESQLRSYSFPTRPIPRLSQSDPRAEELIENEEPVVLTDTNLVYPALKWDLEYLQENIGNGDFSVYSASTHKFLYYDEKKMANFQNFKPRSNREEMKFHEFVEKLQDIQQRGGEERLYLQQTLNDTVGRKIVMDFLGFNWNWINKQQGKRGWGQLTSNLLLIGMEGNVTPAHYDEQQNFFAQIKGYKRCILFPPDQFECLYPYPVHHPCDRQSQVDFDNPDYERFPNFQNVVGYETVVGPGDVLYIPMYWWHHIESLLNGGITITVNFWYKGAPTPKRIEYPLKAHQKVAIMRNIEKMLGEALGNPQEVGPLLNTMIKGRYN
MALDI-TOF mass of the peptide after incubation with FIH-1 (asparagine hydroxylation) [1]: after treatment with FIH-1 the peptide gave a new MALDI-TOF peak corresponding to an increase of molecular weight of 16
interaction of [35S]-HIF-1α with bead-bound GST-CBP after reaction with FIH-1 [2]: the addition of FIH-1 reduced significantly the interaction between HIF-1α and CBP
